Blank lines part the entries; values can stand above or below the binder they belong to.
Experiments:
[1] = molecular target: the molecule itself; assay: cryo-EM structure; human NHA2∆N-Fab complex in MSP1E2 nanodiscs with yeast PI lipids; apo and with 1 mM phloretin
[2] = molecular target: T1, bison NHA2ΔN reconstituted into biotinylated proteoliposomes (bison, UniProt A0A6P3HVI0); assay: ELISA; liposome ELISA: biotinylated proteoliposomes with bison NHA2ΔN immobilised on streptavidin-coated microplates; hybridoma clones
T1 construct: Sodium/proton exchanger NHA2 (SLC9B2) of bison, N-terminally truncated (ΔN); The biotin is on a lipid of the liposome, not on the protein; also called bison NHA2∆N; source: reconstituted with egg PC and a biotinylated lipid
T1 sequence (A0A6P3HVI0 whole entry, stated change not applied, the tested form may be a part): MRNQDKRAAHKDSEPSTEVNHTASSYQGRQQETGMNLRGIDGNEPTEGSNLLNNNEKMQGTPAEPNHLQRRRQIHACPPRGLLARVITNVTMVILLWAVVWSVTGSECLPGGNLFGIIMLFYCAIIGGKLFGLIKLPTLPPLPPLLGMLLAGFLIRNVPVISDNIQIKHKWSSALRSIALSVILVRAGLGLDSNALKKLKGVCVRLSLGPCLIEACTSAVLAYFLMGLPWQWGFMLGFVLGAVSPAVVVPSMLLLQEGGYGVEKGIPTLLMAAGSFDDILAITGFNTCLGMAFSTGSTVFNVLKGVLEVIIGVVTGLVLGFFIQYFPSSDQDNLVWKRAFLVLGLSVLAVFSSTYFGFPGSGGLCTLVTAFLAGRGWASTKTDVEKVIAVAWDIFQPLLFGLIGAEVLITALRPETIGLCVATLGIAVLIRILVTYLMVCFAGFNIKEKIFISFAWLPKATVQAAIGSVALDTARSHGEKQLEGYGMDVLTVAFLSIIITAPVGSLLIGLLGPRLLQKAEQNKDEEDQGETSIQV

B1: Homo sapiens NHA2∆N (residues 59–537), tags removed with TEV protease, in MSP1E2 nanodiscs (domain or fragment, human, UniProt Q86UD5 59-537, looked up)
chain: LQETPTEANHVQRLRQMLACPPHGLLDRVITNVTIIVLLWAVVWSITGSECLPGGNLFGIIILFYCAIIGGKLLGLIKLPTLPPLPSLLGMLLAGFLIRNIPVINDNVQIKHKWSSSLRSIALSIILVRAGLGLDSKALKKLKGVCVRLSMGPCIVEACTSALLAHYLLGLPWQWGFILGFVLGAVSPAVVVPSMLLLQGGGYGVEKGVPTLLMAAGSFDDILAITGFNTCLGIAFSTGSTVFNVLRGVLEVVIGVATGSVLGFFIQYFPSRDQDKLVCKRTFLVLGLSVLAVFSSVHFGFPGSGGLCTLVMAFLAGMGWTSEKAEVEKIIAVAWDIFQPLLFGLIGAEVSIASLRPETVGLCVATVGIAVLIRILTTFLMVCFAGFNLKEKIFISFAWLPKATVQAAIGSVALDTARSHGEKQLEDYGMDVLTVAFLSILITAPIGSLLIGLLGPRLLQKVEHQNKDEEVQGETSVQV
notes: Sodium/proton exchanger NHA2 (SLC9B2), Homo sapiens, residues 59-537; construct lacks the first 58 amino acids; The methods call the tags N-terminal, but the protein is named NHA2∆N-GFP; TEV protease was added after the nanodisc reconstitution and before the final SEC; also called human NHA2∆N; hsNHA2∆N; not shown: GFP, N-terminal, cleaved; TwinStrep, N-terminal, cleaved; His8, N-terminal, cleaved
stoichiometry N [1]: 2

binding result [2]: binds
B2: mouse monoclonal antibody against bison NHA2∆N (parent of the Fab) (antibody, V domains shown)
VH: EVQLQESGPELVKPGASVKMSCKASGYTFTNYFIHWVKQKPGQGLEWIGYINPYNDITKFNEKFKGKATLTSDKSSRTAYMELSSLTSEDSAVYYCARCDGYYRYYAMDYWGQGTSVTVSS
VL: DIVMTQTTSSLSASLGDRVTISCRASQDISNYLNWFQQKPDGTVKLLICYTSRLHSGVPSRFSGSGSGTDYSLTISNLEQEDIATYFCQQDSKHPWTFGGGTKLEIK
notes: Fab part as the heavy chain of m2 (in PDB 9QUB and 9QUW); as the light chain of m2 (in PDB 9QUB and 9QUW); Whole antibody of the selected hybridoma clone; also called antibody clone; source: mouse hybridoma (MRL/lpr mice immunised with bison NHA2 proteoliposomes)

Reference: publication PMC12072577, “Structure and Inhibition of the Human Na^+/H^+ Exchanger SLC9B2” (International Journal of Molecular Sciences, 2025)
